We go through one molecule from PMC2572732, “Structural Coupling of SH2-Kinase Domains Links Fes and Abl Substrate Recognition and Kinase Activation” (Cell, 2008).

The subject of this assay is Fes; GST-cortactin (residues 382–550). Description: In vivo kinase assay: Fes autophosphorylation and GST-cortactin phosphorylation in transfected HEK293T cells. The following applies: HEK293T cells, anti-pTyr western blot, in words. Type of assay: cell-based, human. From the text: To pursue the relevance of the observed interdomain interactions, we studied the effects of mutating residues in the SH2-kinase interface on human Fes activity. To this end, we monitored Fes autophosphorylation and transphosphorylation activity in transfected cells, using cortactin (residues 382–550) fused to GST as an exogenous substrate (Figures 2A and 2B). In an effort to perturb the close interaction between the SH2 and kinase domains, we mutated the conserved glycine residue (G463) located in the tightly packed interface between the SH2 N terminus and the kinase β4/β5 loop to valine (mutant G/V). Introducing this bulky side chain would be expected to sterically hinder alignment of the SH2 and kinase domains, resulting in an altered domain packing. Wild-type (WT) and G/V mutant full-length human Fes, each with an N-terminal Flag epitope, were expressed in HEK293T cells together with GST-cortactin.
Wild-type p130^Gag-Fps and the RX15m and AX9m mutants ([Stone et al., 1984]) were subcloned into the vector pRK5-myc ([Winberg et al., 2000]). Full-length human Fes was cloned into the vector pCMV7.1-3xFlag (Sigma, St. Louis, MO). Site-directed mutagenesis was performed using the QuickChange® II XL Kit (Stratagene, La Jolla, CA) following the manufacturer's directions. A GST-tagged C-terminal fragment of human cortactin (residues 382–550, accession Q14247) was prepared by PCR from cDNA (accession BC008799) and cloned into pEBG vector (gift from C. Duckett, University of Michigan Medical School, Ann Arbor).
HEK293T cells were maintained in Dulbecco's modified Eagle's medium supplemented with 10% (vol/vol) fetal bovine serum, 100 units/ml penicillin G sodium, and 100 μg/ml streptomycin and incubated at 37°C, 5% CO2.
Flag-tagged Fes or Myc-tagged p130^Gag-Fps and mutants thereof were cotransfected with GST-cortactin into HEK293T cells. After 24 hr, cells were lysed with NP-40 cell lysis buffer (50 mM Tris-HCl [pH 7.5], 150 mM NaCl, 1% NP-40, and 1 mM EDTA) that contained 1 mM phenylmethylsulfonyl fluoride, 10 μg/ml leupeptin, 10 μg/ml aprotinin, and 10 μg/ml pepstatin A. Cell lysates, normalized for protein concentration, were used in anti-Flag M2 antibody-agarose (Sigma) or anti-Myc antibody immunoprecipitations or glutathione sepharose affinity precipitations. Associated proteins were resolved using SDS-PAGE and analyzed by western blotting using anti-Flag M2 (Sigma), anti-c-Myc 9E10 (Santa Cruz), HRP-conjugated anti-GST (Santa Cruz), or anti-pTyr 4G10 (Upstate) antibodies.

B1: R/M: Fes with R483 in the SH2 pTyr-binding pocket substituted with methionine (protein, UniProt P07332 1-822, looked up, variant R483M)
Tyrosine-protein kinase …: MGFSSELCSPQGHGVLQQMQEAELRLLEGMRKWMAQRVKSDREYAGLLHHMSLQDSGGQSRAISPDSPISQSWAEITSQTEGLSRLLRQHAEDLNSGPLSKLSLLIRERQQLRKTYSEQWQQLQQELTKTHSQDIEKLKSQYRALARDSAQAKRKYQEASKDKDRDKAKDKYVRSLWKLFAHHNRYVLGVRAAQLHHQHHHQLLLPGLLRSLQDLHEEMACILKEILQEYLEISSLVQDEVVAIHREMAAAAARIQPEAEYQGFLRQYGSAPDVPPCVTFDESLLEEGEPLEPGELQLNELTVESVQHTLTSVTDELAVATEMVFRRQEMVTQLQQELRNEEENTHPRERVQLLGKRQVLQEALQGLQVALCSQAKLQAQQELLQTKLEHLGPGEPPPVLLLQDDRHSTSSSEQEREGGRTPTLEILKSHISGIFRPKFSLPPPLQLIPEVQKPLHEQLWYHGAIPRAEVAELLVHSGDFLVMESQGKQEYVLSVLWDGLPRHFIIQSLDNLYRLEGEGFPSIPLLIDHLLSTQQPLTKKSGVVLHRAVPKDKWVLNHEDLVLGEQIGRGNFGEVFSGRLRADNTLVAVKSCRETLPPDLKAKFLQEARILKQYSHPNIVRLIGVCTQKQPIYIVMELVQGGDFLTFLRTEGARLRVKTLLQMVGDAAAGMEYLESKCCIHRDLAARNCLVTEKNVLKISDFGMSREEADGVYAASGGLRQVPVKWTAPEALNYGRYSSESDVWSFGILLWETFSLGASPYPNLSNQQTREFVEKGGRLPCPELCPDAVFRLMEQCWAYEPGQRPSFSTIYQELQSIRKRHR
Take B1: the Fes autophosphorylation entry (Flag-Fes) is recorded as “failed to autophosphorylate”. Further, where the note is “GST-cortactin”, the transphosphorylation of cortactin result was “significantly reduced ability to transphosphorylate cortactin”.
